These results are taken from PMC9167300, “The LCK-14-3-3ζ-TRPM8 axis regulates TRPM8 function/assembly and promotes pancreatic cancer malignancy” (Cell Death & Disease, 2022).

The target of this experiment is T1, His-LCK fusion (human, UniProt P06239 1-509).
T1 construct: human LCK cDNA subcloned into pET28a(+); also called His-fused LCK; source: E. coli BL21, purified (Ni-NTA agarose)
The experiment in a line: pull-down; protein-protein interaction assay in vitro: 150 μg His-LCK eluted from Ni-NTA incubated with GST or GST-M8C bound to GST-agarose beads, 1 h at room temperature; Western blot. The settings on record: both partners purified. A general note: A western blot detects proteins with antibodies after separation by electrophoresis.

T1 sequence (P06239 whole entry, the tested form may be a part): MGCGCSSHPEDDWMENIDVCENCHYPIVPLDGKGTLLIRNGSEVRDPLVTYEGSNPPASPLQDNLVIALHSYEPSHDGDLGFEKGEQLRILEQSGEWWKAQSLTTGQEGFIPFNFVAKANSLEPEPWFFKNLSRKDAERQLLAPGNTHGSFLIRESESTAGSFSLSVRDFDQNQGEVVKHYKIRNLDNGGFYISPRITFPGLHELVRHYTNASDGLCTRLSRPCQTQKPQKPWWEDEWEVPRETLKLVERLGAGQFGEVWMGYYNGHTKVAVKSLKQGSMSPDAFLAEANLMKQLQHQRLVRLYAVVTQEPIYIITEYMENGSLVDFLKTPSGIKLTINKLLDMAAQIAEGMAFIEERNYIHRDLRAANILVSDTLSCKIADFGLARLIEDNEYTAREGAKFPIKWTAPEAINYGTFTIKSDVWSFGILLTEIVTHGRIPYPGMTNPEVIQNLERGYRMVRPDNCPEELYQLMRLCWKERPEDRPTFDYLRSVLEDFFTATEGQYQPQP

B1: GST-tagged C-terminus of TRPM8 (GST-M8C) (domain or fragment, rat, UniProt Q8R455 980-1104, looked up)
chain: GYTVGIVQENNDQVWKFQRYFLVQEYCNRLNIPFPFVVFAYFYMVVKKCFKCCCKEKNTESSACCFRNEDNETLAWEGVMKENYLVKINTKANDNAEEMRHRFRQLDTKLNDLKGLLKEIANKIK
notes: C-terminus of rat TRPM8 (M8C), amino acids 980-1104, in pGEX-4T-1; source: E. coli BL21, purified (glutathione beads)
In the case of B1, the binding result was “binds”.
